According to PMC9861546:

How the values were obtained:
[1] = biological target: chimeric L1:P18I10 capsid protein (HPV16 L1 with the HIV-1 P18I10 peptide in the DE loop), VLPs (human papillomavirus type 16 | HIV-1) (UniProt P03101); test: cross-linking; disulfide cross-linking seen by non-reducing SDS-PAGE; VLPs in Laemmli sample buffer without or with 5% 2-mercaptoethanol, room temperature, 24 h; blot with anti-HPV16 L1 CAMVIR-1
[2] = biological target: chimeric L1:T20 capsid protein (HPV16 L1 with the HIV-1 T20 peptide in the DE loop), VLPs (human papillomavirus type 16 | HIV-1) (UniProt P03101); test: as above

| Substance | percent of L1 disulfide bonded into dimers or pentamers [1] | percent of L1 disulfide bonded into dimers or pentamers [2] |
| --- | --- | --- |
| chimeric L1:P18I10 capsid protein (HPV16 L1 with the HIV-1 P18I10 peptide in the DE loop), VLPs (from UniProt P03101 1-129; P03101 137-505) | 70% | – |
| chimeric L1:T20 capsid protein (HPV16 L1 with the HIV-1 T20 peptide in the DE loop), VLPs (from UniProt P03101 1-129; P03101 137-505) | – | 70% |
